Measured values as given in a protein production outcome set (Wang et al. 2014).

Test: label from the status in PepcDB records
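Further: failed if final PepcDB status was selected cloned or expressed and not failed if soluble or beyond.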

## MPPCYQHEEEKFFLNAKGQKEALPSIWDSPTKQLSVVVPSYNEEKRLPVMMDEALNYLEKRQKHDCTFTYEVIVVDDGSEDQTSKVALKYCQKYGSDKVRVITLVRNRGKGGAVRMGVFSSRGEKILMADADGATKFPDVEKLEKGLSDLQPWPEQMAIACGSRAHLEKESIAQRSYFRTFLMYGFHFLVWFLCVKGIRDTQCGFKLLTREAAARTFSSLHIERWAFDVELLYIAQCLQIPIAEVAVNWTEIEGSKLVPFWSWLQMGKDLLFIRLRYLTGAWRLKQTRKAS
  protein production: failed

## MVDTTILAQALGFISFGLGFSVFYQKNDRHLKILMLIFNLNHLLHFLLLGSMVSALSALLSALRTTTAIFVSSKRVAAVFIVISLVSGFWVAEQWRDLWPIIGTVIGTYSVFCLSGIRMRIGFLLGASCWLTNNILVGSIGGTLLEMTVIVMNLLTIYRLHRQQSESMINQSSY
  protein production: failed

## MEVIESKWYKKDGASSASIDDVEKLLNTTLPKQYKSFLLWSNGGEGKLGDNYIYIWAIEDVIAYNHDYGIQKYLQKEYWAFGMDGDIGYILHLSDNSIYRVDLGDLDITSIKYIAPSFDDFLGKAIYLNFNKLQNVANNNLTT
  protein production: not failed

## MPELPWVEKYRPKKLSEIVNQEEAIEKVRAWIESWLHGHPPKKKALLLAGPPGSGKTTTVYALANEYNFEVIELNASDERTYEKISRYVQAAYTMDILGKRRKIIFLDEADNIEPSGAKEIAKLIDKAKNPIIMAANKYWEVPKEIREKAELVEYKRLTQRDVMNALIRILKREGITVPKEILLEIAKRSSGDLRAAINDLQTVVVGGYEDATQVLAYRDVEKTVFQALGLVFGSDNAKRAKMAMWNLDMSPDEFLLWVDENIPHLYLNPEEIAQAYDAISRADIYLGRAARTGNYSLWKYAIDMMTAGVAVAGRKRRGFVKFYPPNTLKILAESKEEREIRESIIKKIIREMHMSRLQAIETMKIIREIFENNLDLAAHFTVFLGLSEKEVEFLAGKEKAGTIWGKALALRRKLKELGIREEEKPKVEIEEEEEEEEKTEEEKEEIEEKPEEEKEEEKKEKEKPKKGKQATLFDFLKK
  protein production: failed

## VWAHYEEQPVEEVMPVLEEKERSASYKPVFVTEITDDLHFYVQDVETGTQLEKLMENMRNDIASHPPVEGSYAPRRGEFCIAKFVDGEWYRARVEKVESPAKIHVFYIDYGNREVLPSTRLGTLSPAFSTRVLPAQATEYAFAFIQVPQDDDARTDAVDSVVRDIQNTQCLLNVEHLSAGCPHVTLQFADSKGDVGLGLVKEGLVMVEVRKEKQFQKVITEYLNAQESAKSARLNLWRYGDFRADDADEFGYSR
  protein production: failed

## MSLFEQLDELAAQGKPAALLTIVRKDGSAPRDVGDKMIVTADEEYGTIGGGTVEHLAVQDARSVLSGADDPGIRTYELERGGNTGMVCGGEMDVFIDHVRGQAQLYIAGGGHISVELAPLAERLGYAVTVVDDREAYADPTQFPDETDVIHGEYGEALGDLPMGTETAVAVATRSGTFDQAAVAAALDGEAGYVGLVASETKANHVLDSLAESGYARRDLSRVQTPVGLDLGGSGPAAVALSVLAEVTMDRHDATGARATRLNLDDLVVVRGGGDLGSGVVYRLQQAGFPVIVTEVDQPTVVRRAVAFGAALYEDEVEVEGVTGRAAADIDEALELLADDVVPVLVDPEATVADDLDAAVLVDAIMAKGAFDTGTRREDADVVVGMGPGFEAGEDVDAVVETDRGHELGRVFYDGLEHHHHHH
  protein production: not failed

## MADSESKIYHERQRLQFCLLHCLNNLFQDKDAFTKESLNSIAEKLETNDPNKETWTPLSFVLKPHHNTITGNYDVNVMITALEGKGKSVVWHDKRIGASSIDLDDADTLMGIVLNVPVKRYGGLWRSRHWVVVRKINGVWYNLDSDLVVPQLFRDDDEVRGFLDQNLSLDVIGLIWNLPYNANQLPLASNYRVVITHWSDLNGMFSHVTNYPLDFDVYPQVSSKVSAIYKATGTKRFNANTRPVTPGKQSSVKGPYYKNPGCTTSCGLRLPRKTECTAARLIKDLSCKFVMGLRLVVMRKKKKKRSPPLKKASSSGISQPSVISVVNDNNHRSAAIEDCIQFINSSSSFTRSNSTCGSKS
  protein production: failed

## MEIFELILLMLSAVFLSNVLSRFLPSIAVPLIQVLLGIILAIPLGDHTMDINPELFLLLFMAPILFNDGARTDKKSLWKNRKAILSLSIGLVFVTVGVLGAFIHYLIPAIPFAAAFALAAALAPTDAVAVGALAEKVRVPHKIMHILEGESLINDASGLVSFQFAVLALVTGTFSFMSAGTSFLLLSLGGIALGVVLSLLKIMLMRGLRQLGIENMTSFMLMEILLPFLIFMVAENIGVNGILAVVSGGMVHSFSYKRINPEMAQLNLLSKNTWSVIIFSLNGLVFVLLGTQLPQIMTAIWEDTGIHKSMLFLYIFGITFLLLALRFLWILFFRNYEENPHADLVSRLKNTFLYTVAGVRGTITLVSALSLPFVLGQGNAFPERDLLIFIAAGVIITTLLLANFTLPLFAAKKDVVVADHTTAIALLRDVVGQLQRYKTDENEVEMNNVLKMYNGRIFSLMEHKEVSATEKELRRLTQEWQLENTRRLVFERKIDTGVGLSLMMRLGKRLYVQTRAQKYRARMRYRQLLSHSIRDFRIVPLSFEERRKERAKLQTENNQFVVQKLNELDKNEFNPEVISLYLMNFERALGSGKHKKETDNEELQTTIDLASQIERETIQHYFEKGTITRKEMKVYRDNLLAIEASFQLEF
  protein production: failed

## MIDCAIIGGGPAGLSAGLYATRGGVKNAVLFEKGMPGGQITGSSEIENYPGVKEVVSGLDFMQPWQEQCFRFGLKHEMTAVQRVSKKDSHFVILAEDGKTFEAKSVIIATGGSPKRTGIKGESEYWGKGVSTCATCDGFFYKNKEVAVLGGGDTAVEEAIYLANICKKVYLIHRRDGFRCAPITLEHAKNNDKIEFLTPYVVEEIKGDASGVSSLSIKNTATNEKRELVVPGFFIFVGYDVNNAVLKQEDNSMLCKCDEYGSIVVDFSMKTNVQGLFAAGDIRIFAPKQVVCAASDGATAALSVISYLEHH
  protein production: failed

## MEERMEMISERPKESMYSWNKTAEKSDFEAVEALMSMSCSWKSDFKKYVENRPVTPVSDLSEEENLLPGTPDFHTIPAFCLTPPYSPSDFEPSQVSNLMAPAPSTVHFKSLSDTAKPHIAAPFKEEEKSPVSAPKLPKAQATSVIRHTADAQLCNHQTCPMKAASILNYQNNSFRRRTHLNVEAARKNIPCAAVSPNRSKCERNTVADVDEKASAALYDFSVPSSETVICRSQPAPVSPQQKSVLVSPPAVSAGGVPPMPVICQMVPLPANNPVVTTVVPSTPPSQPPAVCPPVVFMGTQVPKGAVMFVVPQPVVQSSKPPVVSPNGTRLSPIAPAPGFSPSAAKVTPQIDSSRIRSHICSHPGCGKTYFKSSHLKAHTRTHTGEKPFSCSWKGCERRFARSDELSRHRRTHTGEKKFACPMCDRRFMRSDHLTKHARRHLSAKKLPNWQMEVSKLNDIALPPTPAPTQ
  protein production: not failed

## MEKFKYSLLVLFGACSYGILSTIFKLGFINGFSAHQLLGGQYVFGWIGLFLLVLFFSRHKVTKKQFFSLLTVGTTMSMTGIFYAISVEELPASIAVVLLFQFTWIGVIIEAIANRTFPSRDKIISILILFAGTLFAGGVFEGLGQSFSTKGIIFGLLAAVSFSFYVFASGRVATDVPPYTKSFLMTTSATLIVCLFFPPTFLTDGALQAGLWKYAFFLGLFGVVVPVICFSIGVPKVGTGLGTILGAAELPTAIIASITLVHEVVTFMQWIGIIFILVGIFIPQLLTARKERKQNRVHSA
  protein production: failed

## TPAVVERADADSQYEILVGGQRAGLTAYRDLGAQRVFFHTEIDEAFAGQGLASQLVQQALVDVRASGMRIVPVCPYVAKFLKRHDEFADITDPVTPEVLRWLEAQL
  protein production: failed

## MSDICVIIAAYNAEATIAQAVTSALAEAEVAEVVVVDDASSDATAEAALAASDGSGRLIVERQAQNGGPSAARNRAVALSQAPRIAILDADDFFLPGRFARLDPDLDLAADNIVFVTPEHAARLDPTNLPAAPREVEMLDAERFALGNLAQGVHRGELGFLKPVMSRAFLTRHGLRYDERMWLGEDFDLYMRMLLLGARFGLTRAVGYAAVQRGASLSGRHRTADLAALEACCRAHLEMPASPATQEAMRRHLRQVQAKLLLRQFLDRKAEAGLGAALGFALAPPARFLPIAKGVARDKIAALRPPAPPRAERFLLPVLEHHHHHH
  protein production: failed

## MNSFYSQEELKKIGFLSVGKNVLISKKASIYNPGVISVGNNVRIDDFCILSGKVTIGSYSHIAAYTALYGGEVGIEMYDFANISSRTIVYAAIDDFSGNALMGPTIPNQYKNVKTGKVILKKHVIIGAHSIIFPNVVIGEGVAVGAMSMVKESLDDWYIYVGVPVRKIKARKRKIVELENEFLKSMNSLEHHHHHH
  protein production: failed

## MTKIYFAGPLFSQADLRYNAYLVEQIRQLDKTIDLYLPQENAAINDKSAYADSKMIALADTENVLASDLLVALLDGPTIDAGVASEIGVAYAKGIPVVALYTDSRQQGADNHQKLDALNEIAENQFHYLNLYTVGLIKLNGRVVSSEEDLLEEIKQRLS
  protein production: not failed

## MDIISSYSPIHVVGGGLAGSEAAWQIASAGVPVILHEMRGVRGTDAHKTDGLAELVCSNSFRSDDATSNAVGVIHAEMRMAGSLIMAAADRHQVPAGGALAVDRDGFSDAVTRAIHDHPLITVMREEITGLPPSDWDLAIVATGPLTAPSLAAAIQAETGEDSLAFFDAIAPIVYRESIDMDICWYQSRYDKVGPGGTGKDYINCPMDEAQYNAFVNALIAGDTVGFKEWEGTPYFDGCLPIEVMAERGRETLRHGPMKPMGLTNAHNPTVKAYAVVQLRQDNALGTLYNMVGFQTKLKYGAQAEIFRMIPGLENAEFARLGGLHRNTYINSPTLLDPSLTLKSRPGLRFAGQITGCEGYVESASVGLMAGRFAAAERKGEAISLPPATTALGSLLGHITGGHIVTDEEPGKRSFQPMNINFGLFPELEPGSIVKPEGVKRFRGKDKTIMKRQLIARRALADCAAWLGQTRTLAERA
  protein production: failed

## SVTFSYLAETDYPVFTLGGSTADAARRLAASGCACAPVLDGERYLGMVHLSRLLEGRKGWPTVKEKLGEELLETVRSYRPGEQLFDNLISVAAAKCSVVPLADEDGRYEGVVSRKRILGFLAERI
  protein production: not failed

## MKRKKLSIFILSAAIVTSSVSYGMTAKADEVKETKGYNYNVNLSEQKAVANNKISVKKVNGEILGYANPFTMLQILNMNGKTVEVITQSGLRGYVDANEFTLVESAVNDKLIEKNIEGHVTNVSTVLNLRKEPRIGAEIINRLLNNTKVNILGKQGSWYKIELNGQKGYVYGMFLNEGTMKENSSKTIANKKSEVKSKDKKEKKSSVKKEAKKEVVSGVKAKVVQKQREEAKANMTSEAKPAINKDAKSNNKVEVKSEVKKEAKNEVKTEMNSSTKVETSQVVTSEMVQAVNTEVKSEKNQEANLQVRPEIKSEEKTEMISKENLNVIPEAKKEGISEEIKPEVNTEVESKPEMNKEVKAEEGKTAPEVKLEEKQEVKPVEASEEKVEVKKEEVQDPKAKEMDELLKSEEYKFLRMSISYGERLVDRNDVYTKDSLKILRTELEKAKKVFQDKDNLTMKLVQDTRDDLERAIVDLVKISDVKKPVKSKAKVEVKKESNTEKKQEVKEQPAKAEVIVPEVKENKEIKKEEPVKAKEVVKEKKSREEEIEEILKSEEYRFLLKDIAYGERLSEKITVYTRDSLKVLNAAIEKAGRIVRQKEKLTVKLVQDTRDDVDRAIVDLVKKNN
  protein production: failed
